The source of these data is IntAct's records for PubMed 22522702.

B1: ADP-ribosylation factor 6 (Mus musculus), P62331 (parent)
chain: MGKVLSKIFGNKEMRILMLGLDAAGKTTILYKLKLGQSVTTIPTVGFNVETVTYKNVKFNVWDVGGQDKIRPLWRHYYTGTQGLIFVVDCADRDRIDEARQELHRIINDREMRDAIILIFANKQDLPDAMKPHEIQEKLGLTRIRDRNWYVQPSCATSGDGLYEGLTWLTSNYKS
partner: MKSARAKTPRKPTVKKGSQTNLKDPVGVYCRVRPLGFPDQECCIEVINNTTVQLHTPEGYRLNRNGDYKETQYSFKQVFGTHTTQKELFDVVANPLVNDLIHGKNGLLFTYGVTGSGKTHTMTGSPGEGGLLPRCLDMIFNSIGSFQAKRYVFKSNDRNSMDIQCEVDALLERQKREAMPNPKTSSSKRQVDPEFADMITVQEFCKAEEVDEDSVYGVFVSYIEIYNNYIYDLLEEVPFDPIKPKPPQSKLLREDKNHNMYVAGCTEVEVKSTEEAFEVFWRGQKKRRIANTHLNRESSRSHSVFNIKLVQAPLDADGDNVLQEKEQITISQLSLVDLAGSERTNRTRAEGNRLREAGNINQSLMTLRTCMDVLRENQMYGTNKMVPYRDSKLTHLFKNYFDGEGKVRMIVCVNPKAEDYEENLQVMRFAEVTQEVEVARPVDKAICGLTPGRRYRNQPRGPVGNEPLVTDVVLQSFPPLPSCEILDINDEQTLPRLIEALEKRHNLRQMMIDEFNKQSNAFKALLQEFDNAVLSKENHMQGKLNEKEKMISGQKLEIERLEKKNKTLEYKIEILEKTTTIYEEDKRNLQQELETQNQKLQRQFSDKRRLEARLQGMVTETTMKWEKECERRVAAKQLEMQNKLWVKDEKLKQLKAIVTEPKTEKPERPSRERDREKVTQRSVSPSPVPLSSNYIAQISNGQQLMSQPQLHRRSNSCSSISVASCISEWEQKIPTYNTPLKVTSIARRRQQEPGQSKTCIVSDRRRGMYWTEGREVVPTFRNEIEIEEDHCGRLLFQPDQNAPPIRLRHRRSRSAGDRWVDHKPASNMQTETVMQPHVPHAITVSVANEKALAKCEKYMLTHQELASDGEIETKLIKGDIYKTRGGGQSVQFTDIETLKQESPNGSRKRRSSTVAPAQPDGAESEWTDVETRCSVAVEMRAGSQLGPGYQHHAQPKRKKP
B2: ADP-ribosylation factor 6 (Mus musculus), P62331 (parent)
chain: B1 chain
partner: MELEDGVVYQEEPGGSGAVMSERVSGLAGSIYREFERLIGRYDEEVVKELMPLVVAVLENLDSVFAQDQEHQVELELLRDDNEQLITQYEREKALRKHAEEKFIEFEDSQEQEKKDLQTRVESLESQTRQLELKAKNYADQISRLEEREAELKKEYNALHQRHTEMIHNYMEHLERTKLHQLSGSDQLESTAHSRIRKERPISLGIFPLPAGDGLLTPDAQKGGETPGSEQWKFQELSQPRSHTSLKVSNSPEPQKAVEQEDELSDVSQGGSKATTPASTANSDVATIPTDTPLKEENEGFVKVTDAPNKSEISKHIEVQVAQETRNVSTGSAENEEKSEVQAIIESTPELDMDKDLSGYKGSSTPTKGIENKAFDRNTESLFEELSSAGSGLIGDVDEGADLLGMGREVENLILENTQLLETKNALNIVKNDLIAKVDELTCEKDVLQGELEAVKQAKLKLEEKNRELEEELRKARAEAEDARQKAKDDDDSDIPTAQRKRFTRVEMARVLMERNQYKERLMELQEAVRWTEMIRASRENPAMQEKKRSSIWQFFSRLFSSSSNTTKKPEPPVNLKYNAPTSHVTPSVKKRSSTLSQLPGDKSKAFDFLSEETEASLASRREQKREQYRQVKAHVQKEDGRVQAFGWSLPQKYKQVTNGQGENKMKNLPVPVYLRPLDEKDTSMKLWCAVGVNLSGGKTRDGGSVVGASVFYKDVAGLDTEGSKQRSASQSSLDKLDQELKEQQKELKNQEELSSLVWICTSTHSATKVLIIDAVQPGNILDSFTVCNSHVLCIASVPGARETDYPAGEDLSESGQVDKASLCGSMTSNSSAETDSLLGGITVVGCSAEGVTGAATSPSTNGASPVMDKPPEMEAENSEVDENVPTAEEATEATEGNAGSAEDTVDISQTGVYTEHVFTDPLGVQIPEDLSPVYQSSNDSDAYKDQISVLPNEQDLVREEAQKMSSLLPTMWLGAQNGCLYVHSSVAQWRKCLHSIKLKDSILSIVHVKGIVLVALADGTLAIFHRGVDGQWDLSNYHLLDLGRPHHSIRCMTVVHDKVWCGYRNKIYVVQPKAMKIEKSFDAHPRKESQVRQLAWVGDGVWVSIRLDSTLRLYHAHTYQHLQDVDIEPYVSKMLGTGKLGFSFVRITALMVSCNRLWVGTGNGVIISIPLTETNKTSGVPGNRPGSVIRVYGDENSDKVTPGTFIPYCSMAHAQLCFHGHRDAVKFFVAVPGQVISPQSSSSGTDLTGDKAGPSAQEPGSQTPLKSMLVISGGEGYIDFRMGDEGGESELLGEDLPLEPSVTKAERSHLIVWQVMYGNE
B3: ADP-ribosylation factor 6 (Mus musculus), P62331 (parent)
chain: B1 chain
partner: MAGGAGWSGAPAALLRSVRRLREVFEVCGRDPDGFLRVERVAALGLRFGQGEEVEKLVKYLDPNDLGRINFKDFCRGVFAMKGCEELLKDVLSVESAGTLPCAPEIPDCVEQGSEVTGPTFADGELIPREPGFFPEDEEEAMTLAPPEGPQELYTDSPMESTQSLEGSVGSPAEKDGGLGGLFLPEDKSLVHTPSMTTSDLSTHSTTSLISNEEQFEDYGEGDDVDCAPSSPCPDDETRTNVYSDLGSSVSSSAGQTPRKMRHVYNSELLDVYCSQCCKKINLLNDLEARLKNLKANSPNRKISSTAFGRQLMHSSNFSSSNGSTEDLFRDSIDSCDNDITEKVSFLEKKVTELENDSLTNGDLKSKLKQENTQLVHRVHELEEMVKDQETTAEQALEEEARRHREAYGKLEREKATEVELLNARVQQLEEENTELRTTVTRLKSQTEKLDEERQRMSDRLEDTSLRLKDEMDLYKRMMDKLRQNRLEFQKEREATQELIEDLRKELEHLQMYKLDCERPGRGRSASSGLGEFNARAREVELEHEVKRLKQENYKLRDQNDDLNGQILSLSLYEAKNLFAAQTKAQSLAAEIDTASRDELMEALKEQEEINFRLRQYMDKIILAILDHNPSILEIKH
B4: ADP-ribosylation factor 6 (Mus musculus), P62331 (parent)
chain: B1 chain
partner: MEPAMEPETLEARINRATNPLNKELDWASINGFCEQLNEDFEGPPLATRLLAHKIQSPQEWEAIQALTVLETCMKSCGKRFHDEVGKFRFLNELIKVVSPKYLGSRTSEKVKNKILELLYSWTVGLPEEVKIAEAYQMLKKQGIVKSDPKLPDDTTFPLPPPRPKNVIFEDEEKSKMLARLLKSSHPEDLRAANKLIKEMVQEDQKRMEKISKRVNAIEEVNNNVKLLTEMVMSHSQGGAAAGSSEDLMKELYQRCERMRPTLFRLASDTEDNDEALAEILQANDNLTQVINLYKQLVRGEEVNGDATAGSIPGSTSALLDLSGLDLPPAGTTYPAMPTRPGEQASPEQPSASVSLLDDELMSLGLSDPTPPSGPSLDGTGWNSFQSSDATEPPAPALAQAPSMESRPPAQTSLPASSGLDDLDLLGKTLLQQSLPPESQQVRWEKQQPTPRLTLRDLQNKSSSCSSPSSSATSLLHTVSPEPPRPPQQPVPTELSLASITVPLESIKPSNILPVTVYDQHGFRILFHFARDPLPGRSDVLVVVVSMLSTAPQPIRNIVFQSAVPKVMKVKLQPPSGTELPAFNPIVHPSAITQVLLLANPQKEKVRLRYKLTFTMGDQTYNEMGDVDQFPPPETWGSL

The variants in one assay derive from B1. Conditions: with kif23_human KIF23, Q02241.
Take Q67L: the “effect of a mutation on the interaction” value was “increasing interaction”.

A further assay covers variants of B1. Particulars: with kif23_human KIF23, Q02241. This is another data set of the same source.
For the variant Q67L, the “effect of a mutation on the interaction” value is “disrupting interaction”.
Y77A: the “effect of a mutation on the interaction” value is “disrupting interaction”.

In another assay the parent is B1. Particulars: with kif23_human KIF23, Q02241. This is another data set of the same source.
In the case of Q67L, the “effect of a mutation on the interaction” value was “decreasing interaction”.
Take H76A: the “effect of a mutation on the interaction” value is reported as “decreasing interaction”.

A further assay covers variants of B1. Conditions: with kif23_human KIF23, Q02241. The source holds these as a separate data set.
In the case of T27N, the “effect of a mutation on the interaction” value was “decreasing interaction”.

Another assay covers variants of B2. Conditions: with jip4_human SPAG9, O60271.
With Q67L, the “effect of a mutation on the interaction” value was “disrupting interaction”.
Consider Y77A, for which the “effect of a mutation on the interaction” value is listed as “disrupting interaction”.

The variants in another assay derive from B2. Particulars: with jip4_human SPAG9, O60271. This is another data set of the same source.
In the case of H76A, the “effect of a mutation on the interaction” value was “disrupting interaction”.

A further assay covers variants of B3. Conditions: with rfip4_human RAB11FIP4, Q86YS3.
For Q67L, the “effect of a mutation on the interaction” value is listed as “disrupting interaction”.
On to H76A, for which the “effect of a mutation on the interaction” value is “disrupting interaction”.

In the next assay the parent is B3. Conditions: with rfip4_human RAB11FIP4, Q86YS3. This is another data set of the same source.
As to Y77A, the “effect of a mutation on the interaction” value was “disrupting interaction”.

Variants of B4 are the subject of another assay. Particulars: with gga1_human GGA1, Q9UJY5.
As to H76A, the “effect of a mutation on the interaction” value was “disrupting interaction”.

Another assay covers variants of B4. Particulars: with gga1_human GGA1, Q9UJY5. The source holds these as a separate data set.
For Y77A, the “effect of a mutation on the interaction” value is listed as “disrupting interaction”.
On the same count and under the same terms, then Q67L, with “disrupting interaction”.
